Where a chain is given by its changes, count along the chain named. Names may count otherwise. “And” between values parts separate entries of the source, which are not always exact repeats. Identical values can stand only once.

The test concerns the target HRgpA-6H (Porphyromonas gingivalis) (UniProt P28784). Briefly: ELISA, coated HRgpA-6H. A general note: An ELISA detects its analyte on a solid surface through an enzyme-linked reagent.
UniProt P28784, sequence (P28784 228-860 limits assumed): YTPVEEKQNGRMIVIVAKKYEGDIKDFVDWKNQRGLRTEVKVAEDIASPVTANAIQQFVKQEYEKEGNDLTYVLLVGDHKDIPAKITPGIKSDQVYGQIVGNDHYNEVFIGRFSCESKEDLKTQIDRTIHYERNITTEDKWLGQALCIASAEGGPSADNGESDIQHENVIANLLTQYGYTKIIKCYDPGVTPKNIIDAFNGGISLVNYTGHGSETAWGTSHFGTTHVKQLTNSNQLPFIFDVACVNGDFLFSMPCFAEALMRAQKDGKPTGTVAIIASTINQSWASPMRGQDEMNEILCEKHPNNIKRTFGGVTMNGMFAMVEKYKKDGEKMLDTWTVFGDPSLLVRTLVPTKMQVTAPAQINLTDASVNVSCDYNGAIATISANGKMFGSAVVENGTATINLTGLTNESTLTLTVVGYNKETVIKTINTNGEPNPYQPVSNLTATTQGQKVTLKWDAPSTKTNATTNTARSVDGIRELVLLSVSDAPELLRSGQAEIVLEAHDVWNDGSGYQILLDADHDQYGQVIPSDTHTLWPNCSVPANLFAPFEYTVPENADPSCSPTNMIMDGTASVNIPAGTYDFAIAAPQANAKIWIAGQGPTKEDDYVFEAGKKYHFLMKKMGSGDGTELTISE

B1: KB001 mouse Fab VH D58S (Fab, V domains shown)
VH: EVQLKQSGPGLVAPSQSLSITCTVSGFSLSIYSVHWVRQPPGKGLEWLGMIWGGGSSSYNSALKSRLSISKDNSKSQVFLKMNSLQTDDTAMYYCARNGNFYAMDYWGQGTSVTVSS
VL: QIVLTQSPAIMSASLGERVTMTCTASSSVSSSFLHWYQQKPGSSPQLWIYSTSNLASGVPARFSGSGSGTSYSLTISSMEAEDAATYYCHQYHHSPYIYTFGGGTKLEIK
For the molecule B1, the OD450 nm was 0.646 and the Ratio OD(Variant)/OD(WT) stood at 0.817.

B2: KB001 mouse Fab VH S61G (Fab, V domains shown)
VH: B1 VH with S58D, S61G
VL: B1 VL
For B2, the OD450 nm is 0.46 and 0.476; the Ratio OD(Variant)/OD(WT) was 0.932 and 0.965.

B3: KB001 mouse Fab VH Y59R (Fab, V domains shown)
VH: B1 VH with S58D, Y59R
VL: B1 VL
For the molecule B3, the OD450 nm was 0.633 and the Ratio OD(Variant)/OD(WT) is 0.8.

B4: KB001 mouse Fab VH N60S (Fab, V domains shown)
VH: B1 VH with S58D, N60S
VL: B1 VL
On to B4, for which the OD450 nm came out at 0.452 and the Ratio OD(Variant)/OD(WT) is 0.916.

B5: KB001 mouse Fab VH A62M (Fab, V domains shown)
VH: B1 VH with S58D, A62M
VL: B1 VL
Turning to B5, the OD450 nm is 0.77 and 0.735; the Ratio OD(Variant)/OD(WT) was 0.881 and 0.841.

B6: KB001 mouse Fab VH S61H (Fab, V domains shown)
VH: B1 VH with S58D, S61H
VL: B1 VL
Regarding B6, the OD450 nm worked out at 0.469 and the Ratio OD(Variant)/OD(WT) amounted to 0.95.

B7: KB001 mouse Fab VH S61F (Fab, V domains shown)
VH: B1 VH with S58D, S61F
VL: B1 VL
On to B7, for which the OD450 nm is 0.432 and 0.473; the Ratio OD(Variant)/OD(WT) was 0.875 and 0.958.

B8: KB001 mouse Fab VH N60T (Fab, V domains shown)
VH: B1 VH with S58D, N60T
VL: B1 VL
B8: the OD450 nm worked out at 0.406 and the Ratio OD(Variant)/OD(WT) was determined as 0.823.

B9: KB001 mouse Fab VH Y59K (Fab, V domains shown)
VH: B1 VH with S58D, Y59K
VL: B1 VL
Take B9: the OD450 nm worked out at 0.648 and the Ratio OD(Variant)/OD(WT) came out at 0.819.

B10: KB001 mouse Fab VH Y59M/S57I (Fab, V domains shown)
VH: B1 VH with S57I, S58D, Y59M
VL: B1 VL
In the case of B10, the OD450 nm came to 0.701 and the Ratio OD(Variant)/OD(WT) came to 0.886.

B11: KB001 mouse Fab VH A62Q (Fab, V domains shown)
VH: B1 VH with S58D, A62Q
VL: B1 VL
Take B11: the OD450 nm is 0.737 and 0.869; the Ratio OD(Variant)/OD(WT) is 0.843 and 0.994.

B12: KB001 mouse Fab VH A62G (Fab, V domains shown)
VH: B1 VH with S58D, A62G
VL: B1 VL
As for B12, the OD450 nm was 0.813 and 0.785; the Ratio OD(Variant)/OD(WT) was 0.93 and 0.898.

B13: KB001 mouse Fab VH S61R (Fab, V domains shown)
VH: B1 VH with S58D, S61R
VL: B1 VL
Turning to B13, the OD450 nm turned out to be 0.438 and the Ratio OD(Variant)/OD(WT) amounted to 0.888.

B14: KB001 mouse Fab VH D58G (Fab, V domains shown)
VH: B1 VH with S58G
VL: B1 VL
As to B14, the OD450 nm was determined as 0.778 and the Ratio OD(Variant)/OD(WT) worked out at 0.984.

B15: KB001 mouse Fab VH S61C (Fab, V domains shown)
VH: B1 VH with S58D, S61C
VL: B1 VL
As to B15, the OD450 nm was determined as 0.431 and the Ratio OD(Variant)/OD(WT) was 0.873.

B16: KB001 mouse Fab VH S61M (Fab, V domains shown)
VH: B1 VH with S58D, S61M
VL: B1 VL
With B16, the OD450 nm is 0.493 and 0.479; the Ratio OD(Variant)/OD(WT) was 0.999 and 0.971.

B17: KB001 mouse Fab VH Y59F (Fab, V domains shown)
VH: B1 VH with S58D, Y59F
VL: B1 VL
Regarding B17, the OD450 nm is 0.668 and the Ratio OD(Variant)/OD(WT) was 0.845.

B18: KB001 mouse Fab VH A62H (Fab, V domains shown)
VH: B1 VH with S58D, A62H
VL: B1 VL
In the case of B18, the OD450 nm was 0.819 and 0.834 and 0.844; the Ratio OD(Variant)/OD(WT) is 0.937 and 0.954 and 0.966.

B19: KB001 mouse Fab VH S61Y (Fab, V domains shown)
VH: B1 VH with S58D, S61Y
VL: B1 VL
On to B19, for which the OD450 nm was found to be 0.423 and the Ratio OD(Variant)/OD(WT) turned out to be 0.857.

B20: KB001 mouse Fab VH S61W (Fab, V domains shown)
VH: B1 VH with S58D, S61W
VL: B1 VL
B20: the OD450 nm was 0.435 and 0.429; the Ratio OD(Variant)/OD(WT) is 0.881 and 0.869.

B21: KB001 mouse Fab VH S61K (Fab, V domains shown)
VH: B1 VH with S58D, S61K
VL: B1 VL
With B21, the OD450 nm was 0.49 and the Ratio OD(Variant)/OD(WT) was 0.993.

B22: KB001 mouse Fab VH A62N (Fab, V domains shown)
VH: B1 VH with S58D, A62N
VL: B1 VL
With B22, the OD450 nm was 0.721 and 0.799; the Ratio OD(Variant)/OD(WT) was 0.825 and 0.914.

B23: KB001 mouse Fab VH Y59T (Fab, V domains shown)
VH: B1 VH with S58D, Y59T
VL: B1 VL
With B23, the OD450 nm was found to be 0.744 and the Ratio OD(Variant)/OD(WT) was 0.941.

B24: KB001 mouse Fab VH S61L (Fab, V domains shown)
VH: B1 VH with S58D, S61L
VL: B1 VL
Regarding B24, the OD450 nm came out at 0.448 and the Ratio OD(Variant)/OD(WT) came out at 0.908.

B25: KB001 mouse Fab VH N60P (Fab, V domains shown)
VH: B1 VH with S58D, N60P
VL: B1 VL
As to B25, the OD450 nm is 0.44 and 0.428; the Ratio OD(Variant)/OD(WT) is 0.892 and 0.867.

B26: KB001 mouse Fab VH N60Q (Fab, V domains shown)
VH: B1 VH with S58D, N60Q
VL: B1 VL
On to B26, for which the OD450 nm is 0.447 and 0.402; the Ratio OD(Variant)/OD(WT) is 0.906 and 0.815.

Values taken from patent US20240400654A1.
